We go through one substance from patent US20220356223A1.

In this experiment the target is human high-affinity IL2 receptor (IL2Rαβγ) (human) (UniProt P01589). The experiment in a line: cell-based or functional assay.
UniProt P01589, sequence (P01589 22-272, chain 1 of 3): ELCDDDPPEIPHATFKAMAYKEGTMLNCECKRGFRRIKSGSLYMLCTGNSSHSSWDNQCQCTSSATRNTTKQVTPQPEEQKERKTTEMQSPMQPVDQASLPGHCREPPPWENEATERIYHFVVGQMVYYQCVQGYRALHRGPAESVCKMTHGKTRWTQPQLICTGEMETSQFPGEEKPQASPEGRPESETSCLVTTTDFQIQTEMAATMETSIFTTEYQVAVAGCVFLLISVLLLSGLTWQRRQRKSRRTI
UniProt P01589, sequence (P14784 27-551, chain 2 of 3, further chain): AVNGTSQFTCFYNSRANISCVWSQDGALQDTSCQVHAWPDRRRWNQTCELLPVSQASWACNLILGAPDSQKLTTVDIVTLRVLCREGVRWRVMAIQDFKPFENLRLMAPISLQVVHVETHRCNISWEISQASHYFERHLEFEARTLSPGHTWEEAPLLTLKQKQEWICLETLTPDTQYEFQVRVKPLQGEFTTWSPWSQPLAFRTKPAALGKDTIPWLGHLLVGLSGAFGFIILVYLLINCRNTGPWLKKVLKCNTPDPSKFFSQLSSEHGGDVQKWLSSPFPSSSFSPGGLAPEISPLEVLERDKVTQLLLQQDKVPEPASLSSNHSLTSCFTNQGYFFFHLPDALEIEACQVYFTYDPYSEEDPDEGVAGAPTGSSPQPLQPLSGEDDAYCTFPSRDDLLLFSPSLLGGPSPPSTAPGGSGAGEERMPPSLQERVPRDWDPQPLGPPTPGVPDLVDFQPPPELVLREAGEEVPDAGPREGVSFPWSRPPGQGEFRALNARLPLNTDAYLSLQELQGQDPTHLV
UniProt P01589, sequence (P31785 23-369, chain 3 of 3, further chain): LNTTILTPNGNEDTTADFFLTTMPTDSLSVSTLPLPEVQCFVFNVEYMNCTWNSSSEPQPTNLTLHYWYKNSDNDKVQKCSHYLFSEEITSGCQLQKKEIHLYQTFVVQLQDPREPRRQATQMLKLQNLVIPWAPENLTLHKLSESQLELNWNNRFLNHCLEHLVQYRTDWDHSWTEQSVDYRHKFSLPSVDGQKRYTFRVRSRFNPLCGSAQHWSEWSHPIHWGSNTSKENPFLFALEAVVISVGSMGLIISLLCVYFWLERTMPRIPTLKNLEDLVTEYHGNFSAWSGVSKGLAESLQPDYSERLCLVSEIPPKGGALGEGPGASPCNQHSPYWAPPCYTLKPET

On to hAlb-hIL2 (ligand), for which the EC50, STAT5 phosphorylation, human CD4+CD25+ Treg cells (%-supernatant) was found to be 0.0311.
